Results published in patent US20080199851A1.

B1: 10F7 single chain antibody (scFv)
scFv: QVQLQQPGAELVKPGASVKLSCKASGYTFTSYWMHWVKQRPGQGLEWIGEIDPSDSYTNYNQKFKGKATLTVDKSSSTAYMQLSSLTSEDSAVYYCARGGTGDFHYAMDYWGQGTSVTVSSGGGGSDILMTQSPSSMSVSLGDTVSITCHASQGISSNIGWLQQKPGKSFKGLIYHGTNLEDGVPSRFSGSGSGADYSLTISSLESEDFADYYCVQYVQFPYTFGGGTKLEIKR
B2: 4D1 single chain antibody (scFv)
scFv: QVQLQQPGAELVKPGASVNLSCKASGYTFTSYWMHWVKQRPGQGLEWIGEIDPSDSFTTYNQNFKDRATLTVDKSSSTAYMQLRSLTSEDSAVYYCARGGPGDFRYAMDYWGQGTSVTVSSGGGGSDILMTQSPSSMSVSLGDTVSITCHASQGISSNIGWLQQKPGKSFKGLIYHGTNLEDGVPSRFSGSGSGADYSLTISSLESEDFADYYCVQYVQFPYTFGGGTKLEIKRA
B3: 8H5 single chain antibody (scFv, V domains shown)
VH: QVQLQQSGAELMKPGASVKISCKATGYTFSNYWIEWIKQRPGHGLEWIGEILPGSDRTNYNGKFKGKATFTADTSSNTAHMQLSSLTSEDSAVYYCANRYDGYYFGLDYWGQGTSVAVSS
VL: EIVLTQSPAIMSASLGEKVTMSCRASSSVNFVYWYQQRSDASPKLLIYYSSNLAPGVPPRFSGSGSGNSYSLTISGLEGEDAATYYCQHFTSSPYTFGGGTNLEIKR

Tests used:
[1] = biological target: A/Beijing/95(H1N1) (Influenza A virus A/Beijing/95 (H1N1)); assay: lateral-flow sandwich, B line: M2110171 striped + 2/3-Eu
[2] = biological target: A/Taiwan/1/86 (H1N1) (Influenza A virus A/Taiwan/1/86 (H1N1)); assay: as above
[3] = biological target: B/Shanghai/2002 (Influenza B virus B/Shanghai/2002); assay: as above
[4] = biological target: Bar-headed GS/QH/15/2005 (H5N1) (Influenza A virus Bar-headed GS/QH/15/2005 (H5N1)); assay: as above
[5] = biological target: DK/VNM/568/2005 (H5N1) (Influenza A virus DK/VNM/568/2005 (H5N1)); assay: as above
[6] = biological target: A/Beijing/95(H1N1) (Influenza A virus A/Beijing/95 (H1N1)); assay: lateral-flow sandwich, A line: 7304 striped + M4090913-Eu
[7] = biological target: A/Taiwan/1/86 (H1N1) (Influenza A virus A/Taiwan/1/86 (H1N1)); assay: as above
[8] = biological target: B/Shanghai/2002 (Influenza B virus B/Shanghai/2002); assay: as above
[9] = biological target: Bar-headed GS/QH/15/2005 (H5N1) (Influenza A virus Bar-headed GS/QH/15/2005 (H5N1)); assay: as above
[10] = biological target: DK/VNM/568/2005 (H5N1) (Influenza A virus DK/VNM/568/2005 (H5N1)); assay: as above
[11] = biological target: Bar-headed GS/QH/15/2005 (H5N1) (Influenza A virus Bar-headed GS/QH/15/2005 (H5N1)); assay: cell-based or functional assay
[12] = biological target: H5N1 virus CK/HK/213/03 (Influenza A virus CK/HK/213/03); assay: cell-based or functional assay
[13] = biological target: H5N1 virus CK/IDN/2A/04 (Influenza A virus CK/IDN/2A/04); assay: cell-based or functional assay
[14] = biological target: H5N1 virus CP Heron/HK/18/05 (Influenza A virus CP Heron/HK/18/05); assay: cell-based or functional assay
[15] = biological target: H5N1 virus DK/IDN/MS/04 (Influenza A virus DK/IDN/MS/04); assay: cell-based or functional assay
[16] = biological target: H5N1 virus Oriental Magpie Robin/HK/366/2006 (Influenza A virus Oriental Magpie Robin/HK/366/2006); assay: cell-based or functional assay
H5N1 virus strain A1 = assay: cell-based or functional assay
H5N1 virus strain A2 = assay: cell-based or functional assay
H5N1 virus strain A3 = assay: cell-based or functional assay
H5N1 virus strain A5 = assay: cell-based or functional assay
H5N1 virus strain A6 = assay: cell-based or functional assay
H5N1 virus strain A7 = assay: cell-based or functional assay
H5N1 virus strain A8 = assay: cell-based or functional assay
H5N1 virus strain B1 = assay: cell-based or functional assay
H5N1 virus strain B2 = assay: cell-based or functional assay
H5N1 virus strain B3 = assay: cell-based or functional assay
H5N1 virus strain B4 = assay: cell-based or functional assay
H5N1 virus strain B5 = assay: cell-based or functional assay
H5N1 virus strain B6 = assay: cell-based or functional assay
H5N1 virus strain B7 = assay: cell-based or functional assay
H5N1 virus strain B8 = assay: cell-based or functional assay
H5N1 virus strain C2 = assay: cell-based or functional assay
H5N1 virus strain C3 = assay: cell-based or functional assay
H5N1 virus strain D1 = assay: cell-based or functional assay
H5N1 virus strain D2 = assay: cell-based or functional assay
H5N1 virus strain E1 = assay: cell-based or functional assay
H5N1 virus strain E2 = assay: cell-based or functional assay
H5N1 virus strain F2 = assay: cell-based or functional assay
H5N1 virus strain F3 = assay: cell-based or functional assay
H5N1 virus strain G1 = assay: cell-based or functional assay
H5N1 virus strain H1 = assay: cell-based or functional assay
H5N1 virus strain H2 = assay: cell-based or functional assay

Row | Molecule | HI titer n (titer = 2^n) (n-th power of 2) (H5N1 virus strain A1) | HI titer n (titer = 2^n) (n-th power of 2) (H5N1 virus strain A2) | HI titer n (titer = 2^n) (n-th power of 2) (H5N1 virus strain A3) | HI titer n (titer = 2^n) (n-th power of 2) (H5N1 virus strain A5) | HI titer n (titer = 2^n) (n-th power of 2) (H5N1 virus strain A6) | HI titer n (titer = 2^n) (n-th power of 2) (H5N1 virus strain A7) | HI titer n (titer = 2^n) (n-th power of 2) (H5N1 virus strain A8) | HI titer n (titer = 2^n) (n-th power of 2) (H5N1 virus strain B1) | HI titer n (titer = 2^n) (n-th power of 2) (H5N1 virus strain B2) | HI titer n (titer = 2^n) (n-th power of 2) (H5N1 virus strain B3) | HI titer n (titer = 2^n) (n-th power of 2) (H5N1 virus strain B4) | HI titer n (titer = 2^n) (n-th power of 2) (H5N1 virus strain B5) | HI titer n (titer = 2^n) (n-th power of 2) (H5N1 virus strain B6) | HI titer n (titer = 2^n) (n-th power of 2) (H5N1 virus strain B7) | HI titer n (titer = 2^n) (n-th power of 2) (H5N1 virus strain B8) | HI titer n (titer = 2^n) (n-th power of 2) (H5N1 virus strain C2) | HI titer n (titer = 2^n) (n-th power of 2) (H5N1 virus strain C3) | HI titer n (titer = 2^n) (n-th power of 2) (H5N1 virus strain D1) | HI titer n (titer = 2^n) (n-th power of 2) (H5N1 virus strain D2) | HI titer n (titer = 2^n) (n-th power of 2) (H5N1 virus strain E1) | also measured
1 | Anti-Flu B nucleoprotein M2110171 (Fitzgerald) (antibody) | – | – | – | – | – | – | – | – | – | – | – | – | – | – | – | – | – | – | – | – | Signal/noise of test line [1]: 0.5; Signal/noise of test line [2]: 0.4; Signal/noise of test line [3]: 376; Signal/noise of test line [4]: 0.6; Signal/noise of test line [5]: 1
2 | anti-Flu A Medix 7304 antibody | – | – | – | – | – | – | – | – | – | – | – | – | – | – | – | – | – | – | – | – | Signal/noise of test line [6]: 896; Signal/noise of test line [7]: 493; Signal/noise of test line [8]: 3.9; Signal/noise of test line [9]: 246; Signal/noise of test line [10]: 607
3 | B1 | > 8 | > 8 | > 8 | > 8 | 7.5 | 6.5 | 6 | 7 | 0 | > 8 | > 8 | 0 | 7 | 7 | 7 | 2 | 1 | 2.5 | 2.5 | 0 | neutralization: dilution of 10F7 scFv (fold dilution) [11]: 16; neutralization: dilution of 10F7 scFv (fold dilution) [12]: < 1; neutralization: dilution of 10F7 scFv (fold dilution) [13]: 32; neutralization: dilution of 10F7 scFv (fold dilution) [14]: 8; neutralization: dilution of 10F7 scFv (fold dilution) [15]: 16; neutralization: dilution of 10F7 scFv (fold dilution) [16]: < 1; HI titer n (titer = 2^n) (n-th power of 2) (H5N1 virus strain E2): 0; HI titer n (titer = 2^n) (n-th power of 2) (H5N1 virus strain F2): 0; HI titer n (titer = 2^n) (n-th power of 2) (H5N1 virus strain F3): 0; HI titer n (titer = 2^n) (n-th power of 2) (H5N1 virus strain G1): 0; HI titer n (titer = 2^n) (n-th power of 2) (H5N1 virus strain H1): < 1; HI titer n (titer = 2^n) (n-th power of 2) (H5N1 virus strain H2): 0
4 | B2 | > 8 | > 8 | > 8 | > 8 | 7 | 6 | > 8 | > 8 | 0 | > 8 | > 8 | 0 | > 8 | > 8 | > 8 | > 8 | > 8 | > 8 | 7.5 | 1 | HI titer n (titer = 2^n) (n-th power of 2) (H5N1 virus strain E2): 1; HI titer n (titer = 2^n) (n-th power of 2) (H5N1 virus strain F2): 5; HI titer n (titer = 2^n) (n-th power of 2) (H5N1 virus strain F3): 3; HI titer n (titer = 2^n) (n-th power of 2) (H5N1 virus strain G1): 3.5; HI titer n (titer = 2^n) (n-th power of 2) (H5N1 virus strain H1): 6; HI titer n (titer = 2^n) (n-th power of 2) (H5N1 virus strain H2): 4
5 | B3 | 3.5 | 4.5 | 3.5 | 4 | 3 | 3 | 2.5 | 4 | 0 | 5 | 5 | 0 | 3.5 | 4 | 3 | 1 | 0 | 2.5 | 2 | 0 | HI titer n (titer = 2^n) (n-th power of 2) (H5N1 virus strain E2): 0; HI titer n (titer = 2^n) (n-th power of 2) (H5N1 virus strain F2): 0; HI titer n (titer = 2^n) (n-th power of 2) (H5N1 virus strain F3): 0; HI titer n (titer = 2^n) (n-th power of 2) (H5N1 virus strain G1): 0; HI titer n (titer = 2^n) (n-th power of 2) (H5N1 virus strain H1): 0; HI titer n (titer = 2^n) (n-th power of 2) (H5N1 virus strain H2): 0
